Measurements from article PMC8893695, “The microprotein Nrs1 rewires the G1/S transcriptional machinery during nitrogen limitation in budding yeast” (PLoS Biology, 2022).
Values belong to the binder of their own block, whether it stands above or below them.

Tests used:
^FLAGSwi4-Swi6 complex [1] = biological target: T1, ^FLAGSwi4-Swi6 complex (S. cerevisiae, UniProt P25302 1-1093; P09959 1-803); assay: co-IP; recombinant ^FLAGSwi4-Swi6-^GSTWhi5 complexes (0.1 ug ^GSTWhi5) incubated with 0.1, 0.2 and 0.5 ug His6-tagged Nrs1 (4, 8 and 20 Nrs1:Whi5 molar ratio), captured on anti-FLAG beads; blots with anti-GST and anti-HIS6; conditions: both partners purified
T1 construct: Swi4, S. cerevisiae; Swi6, S. cerevisiae; also called SBF; recombinant SBF; source: baculovirus-infected insect cells, purified (anti-FLAG M2 resin, eluted with FLAG peptide)
T1 sequence (P25302 whole entry, chain 1 of 2): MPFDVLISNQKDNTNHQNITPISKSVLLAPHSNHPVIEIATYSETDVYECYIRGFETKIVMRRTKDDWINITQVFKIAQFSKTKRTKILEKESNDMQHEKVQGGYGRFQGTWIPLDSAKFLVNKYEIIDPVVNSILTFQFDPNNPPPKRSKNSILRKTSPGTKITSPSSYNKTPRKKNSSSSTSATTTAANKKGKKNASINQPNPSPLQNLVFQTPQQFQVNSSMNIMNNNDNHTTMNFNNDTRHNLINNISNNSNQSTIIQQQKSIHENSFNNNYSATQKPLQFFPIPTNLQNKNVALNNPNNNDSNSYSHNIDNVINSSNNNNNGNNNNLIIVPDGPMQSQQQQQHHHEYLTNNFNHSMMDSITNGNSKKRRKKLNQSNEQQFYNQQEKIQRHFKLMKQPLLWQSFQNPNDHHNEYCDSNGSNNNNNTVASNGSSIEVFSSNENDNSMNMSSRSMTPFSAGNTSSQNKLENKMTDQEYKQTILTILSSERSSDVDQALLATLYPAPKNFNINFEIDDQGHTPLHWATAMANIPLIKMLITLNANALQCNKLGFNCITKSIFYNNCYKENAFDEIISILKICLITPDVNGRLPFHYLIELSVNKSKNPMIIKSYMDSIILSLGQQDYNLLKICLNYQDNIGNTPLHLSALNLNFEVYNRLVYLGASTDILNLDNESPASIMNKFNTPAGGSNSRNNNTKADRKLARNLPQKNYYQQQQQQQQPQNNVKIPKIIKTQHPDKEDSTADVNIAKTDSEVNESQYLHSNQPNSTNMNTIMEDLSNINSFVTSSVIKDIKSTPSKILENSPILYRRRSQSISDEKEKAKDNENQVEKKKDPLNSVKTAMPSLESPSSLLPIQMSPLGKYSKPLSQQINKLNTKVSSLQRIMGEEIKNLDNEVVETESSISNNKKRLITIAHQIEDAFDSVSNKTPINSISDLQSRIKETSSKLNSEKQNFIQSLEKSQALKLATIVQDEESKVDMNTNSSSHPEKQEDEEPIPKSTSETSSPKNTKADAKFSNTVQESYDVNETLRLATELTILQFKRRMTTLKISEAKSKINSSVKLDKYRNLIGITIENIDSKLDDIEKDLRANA
T1 sequence (P09959 whole entry, chain 2 of 2): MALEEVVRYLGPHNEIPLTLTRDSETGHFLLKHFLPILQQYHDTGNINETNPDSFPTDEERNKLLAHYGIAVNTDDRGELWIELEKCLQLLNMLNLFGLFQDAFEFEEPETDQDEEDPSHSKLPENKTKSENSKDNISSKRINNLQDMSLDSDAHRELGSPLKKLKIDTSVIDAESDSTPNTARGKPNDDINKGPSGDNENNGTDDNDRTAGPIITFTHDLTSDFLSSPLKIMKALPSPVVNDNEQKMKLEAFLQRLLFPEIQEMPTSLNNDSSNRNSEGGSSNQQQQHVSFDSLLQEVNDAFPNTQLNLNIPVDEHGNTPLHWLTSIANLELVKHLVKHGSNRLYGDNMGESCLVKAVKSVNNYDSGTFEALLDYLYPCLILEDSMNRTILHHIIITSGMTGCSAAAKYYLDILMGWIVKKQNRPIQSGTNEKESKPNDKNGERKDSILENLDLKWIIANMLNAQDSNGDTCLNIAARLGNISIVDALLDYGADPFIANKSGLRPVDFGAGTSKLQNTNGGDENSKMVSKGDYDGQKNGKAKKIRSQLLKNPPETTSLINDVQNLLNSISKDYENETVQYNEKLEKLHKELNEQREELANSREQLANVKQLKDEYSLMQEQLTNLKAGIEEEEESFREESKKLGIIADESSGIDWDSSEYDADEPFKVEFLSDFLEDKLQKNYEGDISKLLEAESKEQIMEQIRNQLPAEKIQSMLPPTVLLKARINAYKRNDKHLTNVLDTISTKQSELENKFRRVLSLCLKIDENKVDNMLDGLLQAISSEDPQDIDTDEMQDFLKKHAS

^FLAGSwi4-Swi6 complex [2] = biological target: T1, ^FLAGSwi4-Swi6 complex; assay: pull-down; recombinant ^HAWhi5 or ^GSTNrs1 titrated into preformed ^FLAGSwi4-Swi6-^GSTNrs1 or ^FLAGSwi4-Swi6-^HAWhi5 complexes immobilised on anti-FLAG resin; immunoblot and Coomassie; conditions: both partners purified

binding result (^FLAGSwi4-Swi6 complex [1]): binds
B1: ^GSTWhi5 (natural protein, S. cerevisiae, UniProt Q12416 1-295, looked up)
chain: MSLRTPKRSRTSDEQEQEQEQEQVQNPDTHVNNEHQQRPGPTTLLSTPVRLKNGFGTPSPPSPPGITKSITKSRRRPSTTSLQGIFMSPVNKRRVGITAHGRVYDHNDDGHESESEDDENEEENENQKKYDGHVSMPLLPPTTPKSRRSEVFLSPSPRLRSPPTAARRSTGERPIREISHTLRTRLNYALVKLQNGWTDKTLPELETELAPAVQTPPRRYHNRFPDSADAGTSAHTAFLQALGGHPPREEATAVETLMLLSSPTKKQQHRPVPATSAGEPTDETEPESDTEVETS
notes: Whi5, S. cerevisiae; also called recombinant GST-tagged Whi5; source: recombinant

binding result (^FLAGSwi4-Swi6 complex [2]): binds
B2: recombinant ^HAWhi5 (natural protein, S. cerevisiae, UniProt Q12416 1-295, looked up)
chain: B1 chain
notes: Whi5, S. cerevisiae; source: recombinant
